According to patent publication US20160289284:

Test system: ZF6-DBD (AAV8-CMV delivered) (artificial (designed))
Assay: cell_activity
Conditions: pig retina, rhodopsin transcript by qRT-PCR, 15 days after AAV8 injection

## porcine RHO proximal promoter / TSS region
  activity: 45 % repression
